Source: patent publication US20240076386A1 (Pfizer, published 2024)
Residue numbers refer to the chain shown, from its start.

T1: free soluble human E-selectin in human serum (human, UniProt P16581 22-556, limits assumed)
T1 construct: also called endogenous human E-selectin
T1 sequence (looked up): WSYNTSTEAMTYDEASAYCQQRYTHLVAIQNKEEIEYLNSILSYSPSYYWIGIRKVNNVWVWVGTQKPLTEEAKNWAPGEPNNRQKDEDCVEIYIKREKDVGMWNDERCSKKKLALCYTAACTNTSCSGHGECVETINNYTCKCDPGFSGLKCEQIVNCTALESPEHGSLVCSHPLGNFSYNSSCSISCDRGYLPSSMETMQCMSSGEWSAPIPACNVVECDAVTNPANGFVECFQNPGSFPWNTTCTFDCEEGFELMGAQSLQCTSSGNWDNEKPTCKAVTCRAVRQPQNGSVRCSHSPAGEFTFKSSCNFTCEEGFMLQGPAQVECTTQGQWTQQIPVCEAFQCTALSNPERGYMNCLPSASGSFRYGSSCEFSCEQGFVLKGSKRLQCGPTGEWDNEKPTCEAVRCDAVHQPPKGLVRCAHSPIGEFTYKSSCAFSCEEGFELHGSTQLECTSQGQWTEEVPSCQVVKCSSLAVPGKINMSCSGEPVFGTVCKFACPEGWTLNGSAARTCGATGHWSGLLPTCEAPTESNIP

T2: cynomolgus monkey E-selectin, cell-surface expressed (cynomolgus monkey, UniProt P16581 22-610 (human entry))
T2 construct: also called CHO-cynomolgus monkey E-selectin cells; cynomolgus monkey CHO-E
T2 chain: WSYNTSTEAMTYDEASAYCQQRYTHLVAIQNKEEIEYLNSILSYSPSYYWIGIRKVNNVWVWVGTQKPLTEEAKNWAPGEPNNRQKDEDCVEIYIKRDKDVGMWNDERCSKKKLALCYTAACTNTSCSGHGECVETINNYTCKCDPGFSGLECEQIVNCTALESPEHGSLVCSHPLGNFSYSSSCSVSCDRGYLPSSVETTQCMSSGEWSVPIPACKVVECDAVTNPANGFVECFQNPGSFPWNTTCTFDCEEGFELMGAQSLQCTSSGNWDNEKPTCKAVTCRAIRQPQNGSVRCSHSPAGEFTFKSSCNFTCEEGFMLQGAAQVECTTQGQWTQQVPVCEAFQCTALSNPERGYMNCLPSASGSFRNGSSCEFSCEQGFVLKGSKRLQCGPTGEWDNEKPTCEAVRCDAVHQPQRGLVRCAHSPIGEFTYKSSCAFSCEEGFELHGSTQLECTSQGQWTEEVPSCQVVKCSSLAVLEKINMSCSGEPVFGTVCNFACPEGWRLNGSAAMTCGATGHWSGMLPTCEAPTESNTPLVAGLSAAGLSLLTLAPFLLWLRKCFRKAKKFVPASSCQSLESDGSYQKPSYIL

B1: optimized anti-E-selectin antibody 1282 (antibody, human IgG1, kappa, V domains shown)
VH: EVQLVESGGGLVQPGGSLRLSCAASGYAIRSAYMHWVRQAPGKGLEWVARIDPANGNTIYVDSVEGRFTISADNAKNSAYLQMNSLRAEDTAVYYCAMDLYSTSEYWGQGTLVTVSS
VL: DIQMTQSPSSLSASVGDRVTITCKTSQNIERYLNWYQQKPGKAPKLLIYAASSLQSGVPSRFSGSGSGTDFTLTISSLQPEDFATYFCLQDNAWPLTFGQGTKVEIKR
notes: effector-null human IgG1, kappa
B2: optimized anti-E-selectin antibody 1444 (antibody, human IgG1, kappa, V domains shown)
VH: B1 VH with E65T
VL: B1 VL
notes: as for B1
B3: optimized anti-E-selectin antibody 1448 (antibody, human IgG1, kappa, V domains shown)
VH: B1 VH with E65K, G66E
VL: B1 VL
notes: as for B1
B4: optimized anti-E-selectin antibody 1284 (antibody, human IgG1, kappa, V domains shown)
VH: B1 VH with D62E
VL: B1 VL
notes: as for B1
B5: anti-E-selectin antibody 0164 chimera (antibody, human IgG1, kappa, V domains shown)
VH: EVQLQQSGAEFGKPGTSVKLSCKVSGYNIRSSYMHWVNQRPGKGLEWIGRIDPANGNTIYAEKFKIKAILTADSSSNTAYMQLSQLKSDDTAIYFCAMDLYSTSEYWGQGVMVTVSS
VL: DIQMTQSPSFLSASVGDRVTINCKTSQNINRYLNWYQQKLGEAPKLLIYNANSLQTGIPSRFSASGSGTDFTLTINSLQPEDVATYFCLQDNSWPLTFGSGTKLEIKR
notes: rat VH/VL on effector-null human IgG1 and human kappa

These binders were tested against T1, free soluble human E-selectin in human … (assay: IP-LC/MS/MS of free soluble E-selectin in human serum, capture by biotinylated 0164).
Experimental: This method quantified free soluble human E-selectin in human serum or free soluble monkey E-selectin in cynomolgus monkey serum. The method used 50 μL of serum in 250 μL of PBS which was incubated overnight at 4° C. […] After incubation, 30 μL of Invitrogen T1 streptavidin magnetic beads were added to each sample followed by incubation for 40 minutes at room temperature (shaking at 1000 rpm). Using a Hamilton Microlabstar, the magnetic beads were then washed two times with PBS/0.05% Tween-20 followed by one wash with PBS. Soluble E-selectin was then eluted from the beads with 145 μL of 30 mM hydrochloric acid (HCl) and neutralized with 32 μL of 1 M Tris HCl, pH 8. Subsequently 50 fmol of stable isotope labeled (SIL) internal standard was added, followed by the addition of dithiothreitol (DTT, 10 μL×50 mM). After incubating 35 minutes at 60° C. the samples were allowed to cool to room temperature prior to the addition of iodoacetamide (IAA, 10 μL×100 mM). Samples were then placed in the dark for 30 minutes to which 1 μg of Promega LysC/trypsin (10 μL×100 […]) was added and then digested overnight at 37° C.
After overnight incubation, 50 μL of prepared sample was injected onto the nano ESILC-MS/MS.

Going from B1 to B2, the IC50 falls from 2.4 nM to 1.2 nM (2-fold). The second is the more potent here.

Going from B3 to B4, the IC50 falls from 1.8 nM to 1.1 nM (1.6-fold). The second is the more potent here.

B1 and B2 are within 1.5-fold of each other in IC90: 4.9 nM for the first, 6.5 nM for the second.

First: B3
Second: B4
The IC90 of the first is 1.8-fold higher: 8.6 nM for the first, 4.8 nM for the second.

Biological target: T2, cynomolgus monkey E-selectin, …
Assay: competition ELISA on CHO cells vs sialyl Lewis ligand-PAA-biotin/SA-HRP
Experimental: In a static ligand cellular adhesion assay, horse radish peroxidase (HRP) conjugated E-selectin ligand (sialyl Lewis antigen) and E-selectin antibodies compete for binding to human or cynomolgus E-selectin expressed on Chinese hamster ovary (CHO) cells. The ability of anti-E-selectin antibodies to neutralize ligand binding was assessed in a static neutralization assay using a competition enzyme-linked immunosorbent assay (ELISA) to evaluate the neutralization of the sialyl Lewis antigen to Chinese hamster ovary cells (CHO) engineered to express human or cynomolgus monkey E-selectin.
CHO cells expressing E-selectin were seeded at 12,500 cells per well into a 96 well tissue culture plate and incubated at 37° C., 5% CO₂ for 48 hours to form a confluent monolayer. Plates were subsequently washed twice with 200 μL of calcium magnesium free PBS. Anti-E-selectin antibodies or an IgG1 isotype control (IgG control) were added to the assay in the presence of a small synthetic conjugate of biotinylated, sialyl Lewis A polyacrylamide (Carbosynth LLC, OS45446) or sialyl Lewis X polyacrylamide (Glycotech, 01-045) with streptavidin/horseradish peroxidase (100 μL total) and incubated at 37° C., 5% CO₂ for 2 hours. Plates were then washed twice with 200 μL of calcium and magnesium free PBS. Following the incubation, the cells were washed twice with 200 μL of wash buffer containing 2 mM of calcium chloride (50 mM TRIS [trisaminomethane], 150 mM sodium chloride; 0.05% polysorbate 20, pH 7.4; 2 mM calcium chloride). Signal was developed by adding 100 μL of 1-Step Ultra TMB substrate (Thermo Scientific, 34028) and incubating for 30 minutes at room temperature. Reactions were stopped using 2 M of sulfuric acid and absorbance was read at 450 nm (Spectramax M5e). Data were analyzed and graphed using GraphPad Prism software (Version 8.0.2).

First: B1
Second: B2
The IC50 of the first is 2.1-fold lower: 1.29 nM for the first, 2.65 nM for the second. The first is the more potent here.

B3 and B4 are within 1.5-fold of each other in IC50: 1.85 nM for the first, 1.91 nM for the second.

B5 showed an IC50 of 2.25 nM.
